Experimental data: article PMC5697884, “In vitro characterization of the antivirulence target of Gram-positive pathogens, peptidoglycan O-acetyltransferase A (OatA)” (PLoS Pathogens, 2017)

System: CC(=O)Oc1ccc([N+](=O)[O-])cc1
Assay: purified protein
Conditions: hydrolysis (esterase) without acceptor, 50 mM sodium phosphate pH 6.5, 5% (v/v) ethanol, 25 °C

Row | Substance | Km | kcat
1 | SaOatAC (Staphylococcus aureus subsp. aureus NCTC 8325) | 1.15 ± 0.070 mM | 0.060 ± 0.00078 s⁻¹
2 | SpOatAC (Streptococcus pneumoniae R6) | 0.056 ± 0.0065 mM | 0.016 ± 0.00039 s⁻¹
